Results published in article PMC3630055, “Bovine HEXIM1 inhibits bovine immunodeficiency virus replication through regulating BTat-mediated transactivation” (Veterinary Research, 2013).

Molecular target: T1, His-BHEXIM1 (bovine, UniProt Q0X0C4 1-320)
T1 construct: bovine HEXIM1 (320 amino acids); pETH vector; the only BHEXIM1 cDNA described was amplified from the start to the stop codon (320 aa), so the construct is probably whole; also called purified BHEXIM1 protein; source: E. coli BL21 (DE3), purified (His Sepharose 6)
T1 sequence (looked up): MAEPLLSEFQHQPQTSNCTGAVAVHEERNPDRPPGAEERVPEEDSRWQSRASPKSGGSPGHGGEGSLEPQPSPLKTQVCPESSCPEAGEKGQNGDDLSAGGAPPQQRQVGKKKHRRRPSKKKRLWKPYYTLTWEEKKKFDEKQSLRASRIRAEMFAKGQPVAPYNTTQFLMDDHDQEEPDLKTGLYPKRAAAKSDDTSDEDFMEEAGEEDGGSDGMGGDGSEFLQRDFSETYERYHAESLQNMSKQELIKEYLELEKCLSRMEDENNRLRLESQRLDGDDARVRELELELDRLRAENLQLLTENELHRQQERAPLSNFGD
Assay: pull-down; purified GST or GST-B-cyclin T1 immobilised on glutathione Sepharose 4B beads, incubated with purified His-fusion proteins; anti-His immunoblot; in the competition 20 μg GST-B-cyclin T1, 5 μg His-BTat and 1, 5, 10, 20 μg His-BHEXIM1
Conditions: both partners purified

B1: GST-B-cyclin T1 (aa 1-272) (domain or fragment, bovine, UniProt Q6T8E9 1-272, looked up)
chain: MEGERKNNNKRWYFTREQLENSPSRRFGLDPDKELSNRQQAANLLQDMGQRLNVSQLTINTAIVYMHRFYMIQSFTQFHRNSVAPAALFLAAKVEEQPKKLEHVIKVAHTCLHPQESLPDTRSEAYLQQVQDLVILESIILQTLGFELTIDHPHTHVVKCTQLVRASKDLAQTSYFMATNSLHLTTFSLQYTPPVVACVCIHLACKWSNWEIPVSTDGKHWWEYVDATVTLELLDELTHEFLQILEKTPNRLKRIWNWRAWQADRKTKADDR
notes: bovine cyclin T1, residues 1-272; pGEX6p-1 vector; source: E. coli BL21 (DE3), purified (glutathione Sepharose 4B)
B1: binds.
